The record followed here is US20220177583A1 (University of California, published 2022).

The target of test [1] is T1, human CLDN6, endogenously expressed on cancer cell lines (human, UniProt P56747 1-220).
T1 construct: also called Endogenous CLDN6+; CLDN6 on ARK2, OVCA429, UMUC4 cells
T1 sequence: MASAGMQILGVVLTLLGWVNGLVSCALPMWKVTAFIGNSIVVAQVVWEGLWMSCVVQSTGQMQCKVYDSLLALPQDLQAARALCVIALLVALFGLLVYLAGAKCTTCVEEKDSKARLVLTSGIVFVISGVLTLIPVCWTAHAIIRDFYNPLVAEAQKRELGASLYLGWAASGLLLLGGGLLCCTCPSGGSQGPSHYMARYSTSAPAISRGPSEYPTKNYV
Put plainly: FACS, ARK2 cells, 0.3 ug Ab. In general terms: Flow cytometry measures light scatter and fluorescence of single cells or particles in a stream.

For test [2], the target named is T1, human CLDN6, endogenously expressed on …. Put plainly: FACS, ARK2 cells, 1.5 ug Ab.
Test [3] has the same target. Briefly: FACS, OVCA429 cells, 1.5 ug Ab.
Test [4] has as its target T2, mouse CLDN6 fused to GFP, expressed on engineered HEK293T cells (mouse, UniProt Q9Z262 1-219).
T2 construct: whole, on cells; also called HEK293T-CLDN6-mGFP Artificial CLDN6+ (mouse); murine CLDN6; not shown: GFP tag
T2 sequence (looked up): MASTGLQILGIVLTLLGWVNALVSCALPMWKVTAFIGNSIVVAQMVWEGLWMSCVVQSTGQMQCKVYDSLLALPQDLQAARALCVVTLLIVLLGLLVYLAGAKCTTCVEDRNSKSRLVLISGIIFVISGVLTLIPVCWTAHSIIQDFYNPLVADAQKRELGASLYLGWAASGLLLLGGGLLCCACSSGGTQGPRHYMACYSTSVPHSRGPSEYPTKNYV
Briefly: FACS, 293T clone with mouse CLDN6.

Substitutions are numbered along the chain they refer to.

B1: AB9-chim (antibody, V domains shown)
VH: EVQLQQSGPELVKPGASVKMSCKASGYRFTDYNMHWVKQSHGKSLEWIGYINPNNGGTNYNQNFKGKATLTVNKSSSTAYMELRSLTSEDSAAYYCARDYLYFFDCWGQGTTLTVSS
VL: DIQMTQSPASQSASLGESVTITCLASQTIGTWLAWYQQKPGKSPQLLIYAAASLADGVPSRFSGSGSGTRFSFKISSLQAEDFVSYYCQQLYSIPRTFGGGTKLEIK
notes: Parental antibody prior to humanization ('chim'); also called pre-humanized form of AB9
Take B1: the FACS signal in test [1] amounted to 3510; in test [2], 4490; in test [3], 3570.

B2: AB1-Chim (antibody, V domains shown)
VH: QVQLQQSAAELARPGASVKMSCKASGYTFTTYTMHWVKQRPGQGLEWIGFINPSSGYTDYNQKFKDRTTLTADKSSSTVYMQLSSLTSEDSAVYYCANGDYYVAYWGQGTLVTVSA
VL: QIVLTQSPAIMSASLGERVTMTCTASSSVSSTYFHWYQQKPGSSPKLWIYSTSNLASGVPRRFSGSASGTSYSLTISSMEAEDAATYYCHQYHRSPLTFGAGTKLELK
notes: Parental antibody prior to humanization ('chim'); also called pre-humanized form of AB1
For the molecule B2, the FACS signal in test [1] was found to be 58800; in test [2], 51900; in test [3], 177000; in test [4], 514000.

B3: AB18-chim (antibody, V domains shown)
VH: QVQLKQSGPELEKPGASVKISCKASGYSFTGYNMNWVKQSNGKSLEWIGNIDPYYGGSTYNQKFTGKATLTVDKSSSTAYMQLKSLTSEDSAVYYCARERSGYVFSAMDYWGQGTSVTVSS
VL: NIMMTQSPSSLAVSAGEKVTMSCKSSQSVLFSSNQKNYLAWYQQKPGQSPRLLIYWASTRESGVPDRFTGSGSGTDFTLTISNVQAEDLAVYYCHQYLSSRTFGAGTKLELK
notes: Parental antibody prior to humanization ('chim'); also called pre-humanized form of AB18
Take B3: the FACS signal in test [1] is 3440; in test [2] it was 9150; in test [3], 25500.

B4: AB1-7 (antibody, V domains shown)
VH: QVQLVQSGAEVKKPGASVKMSCKASGYTFTTYTMHWVRQAPGQGLEWIGFINPSSGYTDYAQKFQGRVTLTADTSTSTVYMELSSLRSEDTAVYYCANGDYYVAYWGQGTLVTVSS
VL: DIQLTQSPSSLSASVGDRVTMTCTASSSVSSTYFHWYQQKPGKAPKLLIYSTSNLASGVPSRFSGSGSGTDYTLTISSMQPEDAATYYCHQYHRSPLTFGQGTKLEIK
notes: Humanized; also called humanized AB 1-7
Turning to B4, the FACS signal is 4440 in test [1], 11200 in test [2], 44700 in test [3] and 99700 in test [4].

B5: AB1-11 (antibody, V domains shown)
VH: B4 VH with T74K
VL: B4 VL with L48W
notes: Humanized; also called humanized AB1-11; HU-11
B5: the FACS signal in test [1] was determined as 53900; in test [2], 97700; in test [4], 101000.

B6: AB4-6 (antibody, V domains shown)
VH: QVQLVQSGAEVKKPGASVKMSCKASGYTFTSYTMHWIRQAPGQGLEWIGYINPSSTYTHYAQKFQGRATLTADKSTSTAYMELSSLRSEDTAVYYCSRGELGGFAYWGQGTLVTVSS
VL: DVVMTQSPLSLPVTLGQPASISCRSSQSLVHSDGNTYLNWYQQRPGQSPRLLIYKVSNRFSGVPDRFSGSGSGTDFTLKISRVEAEDVGVYYCSQSTHVPYTFGQGTKLEIK
notes: Humanized; also called humanized AB 4-6
Take B6: the FACS signal was found to be 3300 in test [1], 9840 in test [2] and 14200 in test [4].

B7: AB4-11 (antibody, V domains shown)
VH: B6 VH with A61I, Q62K, Q65K, G66D
VL: B6 VL
notes: Humanized; full-length IgG; see note of AB4-8; also called humanized AB 4-11
Regarding B7, the FACS signal in test [1] came out at 6390; in test [2], 9170; in test [4], 1230.

B8: AB4-10 (antibody, V domains shown)
VH: B6 VH with L45Q, A61I, Q62K, Q65K, G66D, K74T
VL: B6 VL
notes: Humanized; full-length IgG; see note of AB4-8; also called humanized AB 4-10
On to B8, for which the FACS signal in test [1] was found to be 7210; in test [2], 20200; in test [4] it was 2650.

B9: AB4-8 (antibody, V domains shown)
VH: QVQLVQSGAEVKKPGASVKVSCKASGYTFTSYTMHWVRQAPGQGLEWMGYINPSSTYTHYIKKFKDRVTMTADTSTSTVYMELSSLRSEDTAVYYCSRGELGGFAYWGQGTLVTVSS
VL: B6 VL
notes: Humanized; full-length IgG; also called humanized AB 4-8
In the case of B9, the FACS signal in test [1] is 3120; in test [2], 7310; in test [4], 4700.

B10: AB4-12 (antibody, V domains shown)
VH: B6 VH with L45Q, A61I, Q62K, Q65K, G66D
VL: B6 VL
notes: Humanized; full-length IgG; see note of AB4-8; also called humanized AB 4-12
As to B10, the FACS signal in test [1] came to 9690; in test [2], 24200; in test [4] it was 1130.

B11: AB4-9 (antibody, V domains shown)
VH: B6 VH with A61I, Q62K, Q65K, G66D, K74T
VL: B6 VL
notes: Humanized; full-length IgG; see note of AB4-8; also called humanized AB 4-9
Consider B11, for which the FACS signal in test [1] was 3060; in test [2], 7790; in test [4], 1780.

B12: AB4-7 (antibody, V domains shown)
VH: B6 VH with L45Q
VL: B6 VL
notes: Humanized; also called humanized AB 4-7
As to B12, the FACS signal in test [1] came to 2770; in test [2], 7560; in test [4] it was 6640.

B13: AB9-3 (antibody, V domains shown)
VH: QVQLVQSGAEVKKPGASVKMSCKASGYRFTDYNMHWVRQAPGQGLEWIGYINPNNGGTNYAQKFQGRATLTVDTSTSTAYMELSSLRSEDTAVYYCARDYLYFFDCWGQGTLLTVSS
VL: DIQMTQSPSSLSASVGDRVTITCLASQTIGTWLAWYQQKPGKAPKLLIYAAASLADGVPSRFSGSGSGTDFTFTISSLQPEDFVTYYCQQLYSIPRTFGQGTKLEIK
notes: Humanized; also called humanized AB 9-3
B13: the FACS signal in test [1] worked out at 1140; in test [2], 1470; in test [3], 1260.

B14: AB3-2 (antibody, V domains shown)
VH: EVQLLESGGGLVQPGGSMRLSCAASGFTFSNYWMNWVRQAPGKGLEWVAQIRLKSDNYATHYADSVKGRFTISRDDSKNTVYLQMNSLRAEDTGVYYCNDGPPSGCWGQGTLLTVSS
VL: DIQMTQSPSSLSASVGDRVTITCRISENIYSYLAWYQQKPGKAPKLLIYNAKILVEGVPSRFSGSGSGTDFTLTISSLQPEDFATYYCQHHYTVPWTFGQGTKLEIK
notes: Humanized; also called humanized AB 3-2
Regarding B14, the FACS signal in test [1] worked out at 14700; in test [2] it was 33600; in test [3], 85900; in test [4], 31700.

B15: AB3-5 (antibody, V domains shown)
VH: B14 VH with C106Y
VL: B14 VL with I48V, A84G
notes: Humanized; also called humanized AB 3-5
For the molecule B15, the FACS signal in test [1] was 1280; in test [2], 2910; in test [3], 2950; in test [4], 783.

B16: AB18-3 (antibody, V domains shown)
VH: QVQLVQSGAEVKKPGASVKVSCKASGYSFTGYNMNWVRQAPGQGLEWMGNIDPYYGGSTYAQKFQGRVTMTVDTSTSTVYMELSSLRSEDTAVYYCARERSGYVFSAMDYWGQGTLVTVSS
VL: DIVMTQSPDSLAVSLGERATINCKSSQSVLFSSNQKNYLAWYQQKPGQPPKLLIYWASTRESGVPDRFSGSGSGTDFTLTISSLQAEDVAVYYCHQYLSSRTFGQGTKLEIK
notes: Humanized; full-length IgG; also called humanized AB 18-3
Take B16: the FACS signal came to 1080 in test [1], 1210 in test [2] and 2700 in test [3].

B17: AB18-5 (antibody, V domains shown)
VH: B16 VH with V20I, M48I, V68A, M70L, V79A
VL: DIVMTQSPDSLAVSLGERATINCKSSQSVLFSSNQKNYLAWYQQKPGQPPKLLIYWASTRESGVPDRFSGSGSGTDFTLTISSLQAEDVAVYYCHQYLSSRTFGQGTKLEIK
notes: Humanized; also called humanized AB 18-5
For B17, the figures for the FACS signal in test [1], in test [2] and in test [3] were 1310, 1330 and 4270, respectively.

B18: AB18-4 (antibody, V domains shown)
VH: B16 VH
VL: DIVMTQSPDSLAVSLGERVTMNCKSSQSVLFSSNQKNYLAWYQQKPGQPPKLLIYWASTRESGVPDRFSGSGSGTDFTLTISSVQAEDVAVYYCHQYLSSRTFGQGTKLEIK
notes: Humanized; also called humanized AB 18-4
With B18, the figures for the FACS signal in test [1], in test [2] and in test [3] were 1130, 1380 and 3220, respectively.

B19: AB18-6 (antibody, V domains shown)
VH: B16 VH with V20I, M48I, V68A, M70L, V79A
VL: B18 VL
notes: Humanized; also called humanized AB 18-6
B19: the FACS signal in test [1] was determined as 1390; in test [2] it was 1940; in test [3], 6750.

B20: AB4-chim (antibody, V domains shown)
VH: QVQLQQSGAELARPGASVKMSCKASGYTFTSYTMHWIKQRPGQGQEWIGYINPSSTYTHYIKKFKDKATLTADKSSSTAYMQLRSLTSEDSAVYYCSRGELGGFAYWGQGTLVTVSA
VL: DVVMTQTPLSLPVSLGDQASISCRSSQSLVHSDGNTYLNWYLQKPGQSPKLLIYKVSNRFSGVPDRFSGSGSGTDFTLKIRRVEAEDLGVYFCSQSTHVPYTFGGGTKLEIK
notes: Parental antibody prior to humanization ('chim'); also called pre-humanized form of AB4
Consider B20, for which the FACS signal in test [1] turned out to be 19100; in test [2], 38400; in test [3], 64800.
